According to patent US20260234276A1 (DOMAIN THERAPEUTICS, published 2026):
Where a chain is given by its changes, count along the chain named.

B1: 3-102 (antibody)
heavy: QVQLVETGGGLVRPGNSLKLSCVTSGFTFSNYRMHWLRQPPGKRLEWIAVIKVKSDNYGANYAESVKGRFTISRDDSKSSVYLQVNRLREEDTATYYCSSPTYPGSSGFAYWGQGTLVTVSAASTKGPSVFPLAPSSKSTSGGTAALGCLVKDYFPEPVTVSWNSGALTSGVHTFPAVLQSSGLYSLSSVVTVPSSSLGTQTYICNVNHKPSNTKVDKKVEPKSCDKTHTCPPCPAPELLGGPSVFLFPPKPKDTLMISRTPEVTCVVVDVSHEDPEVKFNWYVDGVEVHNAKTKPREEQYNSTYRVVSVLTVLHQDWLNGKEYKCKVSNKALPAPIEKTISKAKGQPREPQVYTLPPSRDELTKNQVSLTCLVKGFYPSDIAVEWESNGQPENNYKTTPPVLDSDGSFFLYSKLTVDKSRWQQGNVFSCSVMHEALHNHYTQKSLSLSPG
light: DIQMTQTTSSLSASLGDRVTISCRASQDISNYLNWYQQKPDGTVKLLIYYTSRLHSGVPSRFSGSGSGTDYSLTISNLEQEDIATYFCQQGNKFPPTFGGGTKLEINRTVAAPSVFIFPPSDEQLKSGTASVVCLLNNFYPREAKVQWKVDNALQSGNSQESVTEQDSKDSTYSLSSTLTLSKADYEKHKVYACEVTHQGLSSPVTKSFNRGEC
B2: 3-105 (antibody)
heavy: QVQLVETGGGLVRPGNSLKLSCVTSGFTFSNYRMHWLRQPPGKRLEWIAVIKVKSDNYGANYAESVKGRFTISRDDSKSSVYLQVNRLREEDTATYYCSSPTYPGSSGFAYWGQGTLVTVSAASTKGPSVFPLAPSSKSTSGGTAALGCLVKDYFPEPVTVSWNSGALTSGVHTFPAVLQSSGLYSLSSVVTVPSSSLGTQTYICNVNHKPSNTKVDKKVEPKSCDKTHTCPPCPAPELLGGPDVFLFPPKPKDTLMISRTPEVTCVVVDVSHEDPEVKFNWYVDGVEVHNAKTKPREEQYNSTYRVVSVLTVLHQDWLNGKEYKCKVSNKALPLPEEKTISKAKGQPREPQVYTLPPSRDELTKNQVSLTCLVKGFYPSDIAVEWESNGQPENNYKTTPPVLDSDGSFFLYSKLTVDKSRWQQGNVFSCSVMHEALHNHYTQKSLSLSPG
light: B1 light
B3: 3-90 (antibody)
heavy: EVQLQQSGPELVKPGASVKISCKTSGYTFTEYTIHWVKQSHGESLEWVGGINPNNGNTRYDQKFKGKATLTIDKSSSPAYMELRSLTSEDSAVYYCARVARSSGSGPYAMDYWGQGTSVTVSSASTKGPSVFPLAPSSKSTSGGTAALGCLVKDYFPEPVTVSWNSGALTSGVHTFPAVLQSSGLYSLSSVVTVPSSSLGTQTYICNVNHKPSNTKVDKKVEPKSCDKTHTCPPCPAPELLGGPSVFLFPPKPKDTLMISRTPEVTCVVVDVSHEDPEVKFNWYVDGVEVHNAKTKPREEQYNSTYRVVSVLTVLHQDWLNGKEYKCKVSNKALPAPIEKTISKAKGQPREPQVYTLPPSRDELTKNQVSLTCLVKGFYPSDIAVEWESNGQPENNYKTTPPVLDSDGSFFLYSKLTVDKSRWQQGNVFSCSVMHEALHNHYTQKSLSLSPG
light: DVVMTQTPLSLPVSLGDQASISCRCTQSLLHTNGDTYLHWYLQKPGQSPKLLIYKVSNRFSGVPDRFSGSGSGTDFTLKISRVEAEDLGVYFCSQSTHVPYTFGGGTKLEIKRTVAAPSVFIFPPSDEQLKSGTASVVCLLNNFYPREAKVQWKVDNALQSGNSQESVTEQDSKDSTYSLSSTLTLSKADYEKHKVYACEVTHQGLSSPVTKSFNRGEC
B4: 3-91 (antibody)
heavy: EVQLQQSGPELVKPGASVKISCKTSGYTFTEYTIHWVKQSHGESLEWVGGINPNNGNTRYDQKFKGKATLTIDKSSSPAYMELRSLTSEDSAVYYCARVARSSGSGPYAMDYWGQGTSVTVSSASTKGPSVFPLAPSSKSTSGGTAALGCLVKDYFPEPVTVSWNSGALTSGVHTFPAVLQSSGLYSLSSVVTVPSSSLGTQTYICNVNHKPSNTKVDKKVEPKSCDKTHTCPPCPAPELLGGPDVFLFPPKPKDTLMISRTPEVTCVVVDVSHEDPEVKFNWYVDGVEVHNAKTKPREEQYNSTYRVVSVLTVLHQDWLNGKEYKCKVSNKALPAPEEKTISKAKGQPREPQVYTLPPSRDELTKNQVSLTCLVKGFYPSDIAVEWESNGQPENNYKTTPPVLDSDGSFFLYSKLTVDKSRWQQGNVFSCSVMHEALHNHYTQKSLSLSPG
light: B3 light
B5: 3-92 (antibody)
heavy: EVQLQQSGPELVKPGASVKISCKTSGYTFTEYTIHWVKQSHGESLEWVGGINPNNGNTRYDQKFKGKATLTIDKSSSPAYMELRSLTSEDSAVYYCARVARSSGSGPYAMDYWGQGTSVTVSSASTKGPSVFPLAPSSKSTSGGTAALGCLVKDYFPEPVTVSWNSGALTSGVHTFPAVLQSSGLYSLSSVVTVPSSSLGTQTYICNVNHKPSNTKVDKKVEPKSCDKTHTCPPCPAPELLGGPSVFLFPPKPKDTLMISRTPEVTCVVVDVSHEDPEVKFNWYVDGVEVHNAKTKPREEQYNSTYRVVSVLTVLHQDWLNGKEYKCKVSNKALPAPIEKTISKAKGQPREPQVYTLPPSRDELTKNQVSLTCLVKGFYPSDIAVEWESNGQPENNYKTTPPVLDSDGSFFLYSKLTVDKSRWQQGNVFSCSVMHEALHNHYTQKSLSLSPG
light: B3 light
B6: 3-54 (Fab, V domains shown)
VH: QVQLVQSGAEVKKPGASVKVSCKASGYTFSGYYIHWVRQAPGQGLEWMGWINPNSGGTNYAQNFQGRVTMTRDTSISTAYMELSRLRSDDTAMYYCARGNGAMDVWGRGTLVTVSS
VL: DVVMTQSPLSLPVTSGKPASISCRSSQSLLHSNGYNYLDWYLQKPGQSPQLLIYLGSNRASGVPDRFSGSGSGTDFTLKISRVEAEDVGVYYCMQGTYWPRTFGQGTKVEIKR
notes: soluble Fab from phage display library huFabL-4, Flag tag
B7: 3-73 (Fab, V domains shown)
VH: QVQLQQSGPGLVKPSQTLSLTCAISGDSVSSSTAAWNWIRQSPSRGLEWLGRTYYRSKWYNDYAVSVKSRITINPDTSKNQFSLQLNSVTPEDTAVYYCARAEAGGRFDYWGQGTLVTVSS
VL: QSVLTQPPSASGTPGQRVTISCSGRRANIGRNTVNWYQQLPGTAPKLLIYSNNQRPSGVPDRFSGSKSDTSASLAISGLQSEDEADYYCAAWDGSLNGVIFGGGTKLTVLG
notes: as for B6
B8: 3-71 (Fab, V domains shown)
VH: QVQLQESGGGLVKPGRSLRLSCTASGFTFSSYAMSWVRQAPGKGLEWVSVNSGSGGTTYYADSVKGRFTISRDNAKNTLYLQMNSLRAEDTAVYYCARVSRYYDILTGYVYAFDIWGKGTLVTVSS
VL: QSVVTQPPSVSAAPGQKVSISCSGSSSNIGKNYVSWYQQLPGTAPKLLIYDNNKRPSGIPDRFSGSKSGTSATLGITGLQAEDEADYYCQSYDRSLGVVFGGGTKLTVLG
notes: as for B6
B9: 3-72 (Fab, V domains shown)
VH: QVTLKESGGGVVQPGRSLRLSCAASGFTFSSYAMHWVRQAPGKGLEWVAVISYDGSNKYYADSVKGRFTISRDNSKNTLYLQMNSLRAEDTAVYYCASSLLGAFDVWGKGTLVTVSS
VL: DVVMTQSPLSLPVTPGEPASISCRSSQSLLHSNGYNYLSWYLQRPGQSPQLLMYLGSKRASGVPDRFSGSGSGTDFTLEISRVEAEDVGIYYCMQALQTPLTFGGGTKVEIKR
notes: as for B6
B10: 3-75 (Fab, V domains shown)
VH: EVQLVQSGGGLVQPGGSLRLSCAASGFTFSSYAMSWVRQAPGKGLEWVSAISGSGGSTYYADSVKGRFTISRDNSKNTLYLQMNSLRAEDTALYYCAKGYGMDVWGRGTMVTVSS
VL: LPMLTQPPSVSGTPGQRVTISCSGSTSNIGSRPVNWYQQLPGTAPKLLIYRNYQRPSGVPDRFSGSKSGTSASLAISGLRSEDEADYYCAAWDDSLSGWVFGGGTKLTVLG
notes: as for B6
B11: 3-74 (Fab, V domains shown)
VH: EVQLVQSGGGVVQPGRSLRLSCAASGFTFSNYGMHWVRQAPGKGLEWVAIISDDGSNRYYGDSVKGRFTISRDNSKNTLYLQMNSLRAEDTAVYYCAKSLTTSYYYGMDVWGKGTLVTVSS
VL: QSALTQPPSASGSPGQSVTISCTGTSSDIGGYIYVSWYQQHPGKAPKLIIYEVHKRPSGVSNRFSASKSANTASLTISGLQAEDEADYYCSSYSSSRTVLFGGGTKLTVLG
notes: as for B6
B12: 3-67 (Fab, V domains shown)
VH: QVQLQQSGPGLVKPSQTLSLTCAISGDSVSSNSAAWNWIRQSPSRGLEWLGRTYYRSKWYNDYAVSVKSRITINPDTSKNQFSLQLNSVTPEDTAVYYCARAARLGMDVWGKGTMVTVSS
VL: QSVVTQPPSVSAAPGQKVTISCSGTSFNIGNNYVSWYQQLPGTAPKLLIYDNIRRPSGIPERFSGSKSGTSATLGITGLQTGDEADYYCGTWDSSLRAYVFGTGTKLTVLG
notes: as for B6
B13: 3-69 (Fab, V domains shown)
VH: B12 VH with R70Q, A102E, A103Q, R104F, L105S, K112R, M115L
VL: QSVLTQPPSASGTPGQRVTISCSGSSSNIGRNYVYWYQQLPGTAPKLLTDSNNQRPSGVPDRFSASKSGTSASLAISGLRSEDEADYYCAAWDGSLRGRVFGGGTKMTVLG
notes: as for B6
B14: 3-68 (Fab, V domains shown)
VH: QVQLQQSGPGLVKPSQTLSLTCAISGDSVSRNTAAWNWIRQSPSRGLEWLGRTYYRSKWYNDYAVSVKSRITIRPDTSKNQISLQLTSVTPEDTAVYYCARGVHNAFDIWGRGTMVTVSS
VL: ETTLTQSPGTLSLSPGERATLSCRASQSVGNRYLAWYQQKPGQAPRLLIYGASSRATGIPDRFSGSGSGTDFTLTISRLEPEDFAVYYCQQYSGSTGYTFGQGTKLEIKR
notes: as for B6

target: human CCR8 (human, UniProt P51685 1-355); assay: cell-based or functional assay

In order of rising “ADCC % Max lysis, NK cells Donor 3” value:
1. B3  14%
2. B1  16%
3. B2  25%
4. B4  25%
5. B5  29%

In order of falling “ADCC % Max lysis, NK cells Donor 4” value:
1. B2  30%
2. B5  29%
3. B4  28%
4. B1  18%
5. B3  15%

In order of falling “ADCC EC50, NK cells Donor 3” value:
1. B3  0.793 nM
2. B1  0.291 nM
3. B4  0.218 nM
4. B5  0.195 nM
5. B2  0.00822 nM

In order of falling “ADCC EC50, NK cells Donor 4” value:
1. B3  1.52 nM
2. B1  0.406 nM
3. B5  0.282 nM
4. B4  0.053 nM
5. B2  0.0489 nM

target: T1, streptavidin (UniProt P22629 37-163, limits assumed); assay: ELISA, soluble Fab on streptavidin-coated control well without peptide
T1 construct: control well without peptide
T1 sequence (P22629 37-163 limits assumed): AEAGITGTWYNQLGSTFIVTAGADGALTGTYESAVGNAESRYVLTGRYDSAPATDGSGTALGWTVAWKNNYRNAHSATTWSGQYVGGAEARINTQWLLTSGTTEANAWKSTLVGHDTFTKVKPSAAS
Experimental: (§1) The wells of a microtiter plate were coated with 200 ng streptavidin protein in 100 μL Coating Buffer (0.1 M NaHCO₃, pH 8.6), and then incubated overnight at 4° C. For negative control, the wells were coated with PBS to determine non-specific binding. After shaking out the coating solution, the wells were washed three times with washing buffer (0.1% Tween 20-PBS). To prevent non-specific binding, 200 μL Blocking Buffer (3% BSA-PBS) was adding and incubated for 2 h at 37° C. After shaking out the blocking buffer, the wells were incubated with 50 ng biotinylated target peptide (SEQ ID NO: 420; see Example 10) in 100 μL Blocking Buffer for 1 h at 37° C. The control well was incubated with only 100 μL Blocking Buffer for 1 h at 37° C. After shaking out the biotinylated target peptide or buffer solution, the wells were washed 3 times with the washing buffer (0.1% Tween 20-PBS). Then 100 μL supernatant containing soluble Fab were added and incubated for 2 h at 37° C. Following three washes with washing buffer (0.1% Tween 20-PBS) for 3 times, 100 μL/well HRP conjugate of mouse anti-Flag tag mAb (Sigma A8592, 1:5000) diluted in Blocking Buffer were added and incubated for 1 h at 37° C. After washings, 3,3′,5,5′-tetramethylbenzidine (TMB) (Sigma) were added for 5 to 30 min at room temperature. The reaction was stopped by adding 50 μL/well of 1 M H₂SO₄.

In order of rising “Optical Density” value:
1. B12  0.06 OD450
2. B14  0.06 OD450
3. B7  0.07 OD450
4. B13  0.07 OD450
5. B6  0.08 OD450
6. B8  0.08 OD450
7. B10  0.08 OD450
8. B9  0.09 OD450
9. B11  0.09 OD450

target: T2, biotinylated CCR8 peptide (human, N-terminal biotin); assay: ELISA, soluble Fab on biotinylated CCR8 peptide captured on streptavidin
T2 construct: first 34 residues of human CCR8 plus a C-terminal K; also called biotinylated target peptide
Experimental: as §1

In order of falling “Optical Density” value:
1. B10  3.67 OD450
2. B14  3.64 OD450
3. B9  3.26 OD450
4. B11  2.81 OD450
5. B6  2.76 OD450
6. B13  2.67 OD450
7. B8  2.4 OD450
8. B7  2.27 OD450
9. B12  2.23 OD450
